Test results from the DeepSol protein solubility set.

Experiment: soluble on expression in E. coli; label from the status in PepcDB or PDB records

Which “soluble on expression in E. coli” value does the source give for “MSLNIAKGEPVKITTIDVGNKSFPVKITFIDRKGVSYYIDVAMSRTNSGMEPADFQAEKRINYFPNAFSFTNPDVKTRESIQSKYIGQSVYPQKTIRVKQTELLRYTPLHIKDVQPEKAGTSATLLLTDIQGNTYQVKVDLKYDPILKNEDFIEDLFGFSDIRKKYPNISESNWLMLAKGEVKPGMTTEECKLAIGEPIEIRVRTDTRFETWLYRGKILEFENGILLRAKEGHHHHHH” here?
The value was “soluble”.

Which “soluble on expression in E. coli” value does the source give for “MSLNIETIVKGRRMITKFPPQWQEKLDQVAFTHLTPIQEQAFQPIVDGKNFLGISPTGTGKTLAYVFPSLLALTPKKSQQLLILAPNTELAGQIFEVTKDWAQPLGLTAQLFISGTSQKRQIERLKKGPEILIGTPGRIFELIKLKKIKMMSVNTIVLDEYDELLGDSQYDFVQKISHYVPRDHQMVYMSATNKVDQTSLAPNTFCIDLSEQTNDAIQHFYLMVDKRERTDLLRKFANIPHFRALVFFNSLSDLGATEERLQYNGAAAVSLASDINVKFRKTILEKFKSHQLSLLLATDLVARGIDIDNLDYVIHFDVARDKENYTHRAGRTGRMGKSGIVITFVSHPEDLKKLKKFAKVSEISLKNQQLHFINEGHHHHHH” here?
Its value is “not soluble”.

For “MSLNIHIHSMTGFANAAAECGSKRINLDIRAVNHRFLDIQIRMPDDLRYLESGIREKISSHIARGKVECKIQIQDTENSRQSLELNSDLVNQLAEINKNLRKHHDLAKLGVADILRFPGVLASQRENTEELAKSITELTEKALKDFTAARRREGKKLGEHLLQRLESMEEIIDALSELFPTLLETHKEKIRARLVEAVGDINNDRLQQEFALFIQKSDIDEEFSRLRTHIAEVRRIVTEHKGSSGKRLDFLMQELNREANTLGSKSIAAECTQASVELKVLIEQMREQVQNIEEGHHHHHH”, which “soluble on expression in E. coli” value is on record?
Its value is “soluble”.

Which “soluble on expression in E. coli” value does the source give for “MSLNIKEASEKSGVSADTIRYYERIGLIPPIHRNESGVRKFGAEDLRWILFTRQMRRAGLSIEALIDYLALFREGEHTLEARAELLKKQRIELKNRIDVMQEALDRLDFKIDNYEGHHHHHH” here?
The value was “not soluble”.

Which “soluble on expression in E. coli” value does the source give for “MSLNILIIAFEGIEGSGKTSHLEATKKYLEKEGYGVVTFGLQMSKLIGDRIAQVKRNIIFERRTLFLAYVTDLADQIENYVKPSIDSGFIALADGYTLTLTSWGLTRGLEKEWIDDVLSMLPKPSISLPLISTPDEIVRRIIKKRGYLDPLETGIDICIKEDTFEAYIDYINRFQEALMSISSRENIIYTDKEFDEVQKEIVRRIDNITEGHHHHHH” here?
The value was “soluble”.

For “MSLNINDALTSILASKKYRALCPDTVRRILTEEWGRHKSPKQTVEAARTRLHGICGAYVTPESLKAAAAALSAGDVKKALSLHASTKERLAELDTLYDFIFSAETPRRVLDIACGLNPLALYERGIASVWGCDIHQGLGDVITPFAREKDWDFTFALQDVLCAPPAEAGDLALIFKLLPLLEREQAGSAMALLQSLNTPRMAVSFPTRSLGGRGKGMEANYAAWFEGGLPAEFEIEDKKTIGTELIYLIKKNGEGHHHHHH”, which “soluble on expression in E. coli” value is on record?
The value was “soluble”.

Which “soluble on expression in E. coli” value does the source give for “MSLNKAMQEVNLEDSLKFFEQAANQPAALLKVQTQWWEQQLQIWQKVVLESKIQSIMEAEKGDKRFSHEAWQQDPFFNFIKQSYLLFSKTYLDTINAIEGLDEKAKERILFFSRQMINALSPSNFIATNPELLRLTLEKNGENLIAGLEQLKEDVASSADILKIRMTNNNAFRLGEDVANTPGEVVFKNEVFELIQYKPLTEQVAVTPLLIVPPFINKYYILDLREKNSMVRWLVEQGHSVFMISWRNPGAAQAQLNFEDYVLEGVVKAVNAIESITGQEQINAAGYCIGGTVLATTIAYYAAKRMKKRIKTASFFTTLLDFSQPGEVGAYINDTIIRAIELQNNAKGYMDGRSLSVTFSLLRENSLYWNYYVDNYLKGQSPVDFDLLYWNSDSTNVAGACHNFLLRELYLENKLVQDKGVKVGGVWIDLDKIKVPSYFISTKEDHIALWQGTYRGALRTGGNKTFVLGESGHIAGIVNHPDKRKYGYWVNDTLDDSAEDWLETAQHREGSWWVHWNEWLNGFADGSKVEPYPLGNADYPVLYSAPGEYVKQVLPIQEEGHHHHHH” here?
Its value is “soluble”.

Which “soluble on expression in E. coli” value does the source give for “MSLNKNIKSLNLREKDPFLSREKQRYEHPLPSREWIIELLERKGVPSKIESLARELSITEDEYVFFERRLKAMARDGQVLINRRGAVCAADKLDLVKCRVEAHKDGFGFAVPLTPAKDGDFVLYERQMRGIMHGDIVTVRPAGMDRRGRREGTVLDIVERAQSKVVGRFYMDRGVAILEPEDKRLNQSIVLEPDGVARFKPESGQVIVGEIEVYPEQNRPAVAKIIEVLGDYADSGMEIEIAVRKHHLPHQFSEACAKAAKKIPVHVRKSDLKGRVDLRDLPLVTIDGETARDFDDAVFAEKVGRNYRLVVAIADVSHYVRPDDVIDADAQERSTSVYFPRRVIPMLPENLSNGICSLNPDVERLCMVCDMVVTYAGNIKEYRFYPAVMRSHARLTYNQVWKWISDGIDHPYKAQIDTLYKLFKILQKKRFERGAVEFESVETQMIFDDNGKIEKIVPVVRNDAHKLIEECMLAANVCAADFLLKNKHTALFRNHLGPTPEKLATLREQLGLLGLQLGGGDNPSPKDYAALVEQFKGRPDAELLQVMMLRSMQQAVYEPHCDGHFGLAYEAYAHFTSPIRRYPDLTVHRAIKAVLNQQTYTPKKSWQALGVHTSFCERRADDASRDVENWLKTYYMRDKVGEVFEGKISGMTSFGIFVTLDGIHIDGLVHISDLGEDYFNFRPEIMAIEGERSGIRFNMGDRVAVRVARADLDDGKIDFVLIAGGSGRGRKVKSSASAKPAGTAGKGKPKTAAEKKTARGGKVRGRGASAAAESRKKAKKPVPIKVKKRKGKSEGHHHHHH” here?
Its value is “not soluble”.

With “MSLNKPKIVILGAGYGGLMTVTRLTKYVGPNDADITLVNKHNYHYETTWMHEASAGTLHHDRCRYQIKDVINQSRVNFVQDTVKAIKIDEKKVVLANGELQYDYLVIGLGAVPETFGIKGLKEYAFPIANINTSRLLREHIELQFATYNTEAEKRPDRLTIVVGGAGFTGIEFLGELAARVPELCKEYDVDRSLVRIICVEAAPTVLPGFDPELVDYAVHYLEENGVEFKIGTAVQECTPEGVRVGKKDEEPEQIKSQTVVWAAGVRGHPIVEEAGFENMRGRVKVNPDLRAPGHDNVFILGDSSLFMNEDTERPYPPTAQIAMQQGITVAKNLGRLIKGGELEEFKPDIKGTVASLGEHNAVGVVYGRKLKGTPASFMKKVIDNRSLFMIGGLGLTLKKGKFKEGHHHHHH” as the sequence, how does the “soluble on expression in E. coli” value read?
The value was “soluble”.

For “MSLNPEEEVITLMKKAGIDLVATLPCDRIKNLLPLVSKNFPEIKMTREENGVGICAGFYLAGGKPLMLIQSTGLGNMINALESLNVTCKIPLPVLTSWRGVYKEAIEAQVPLGVHLPAILEGAGLAYTIIDEVEKLHQIENVISDAFENSRPHIALISPKVWEASECCAWQGAGMPEKPEVMERTCSIFLKKEVLKPVMLRNDAICAIASELDDEVTVTNLGVPCKELYACKDRDLNFYMFGSMGLVSSIGMGIALRSEKTVVAFDGDGSLLMNPNALLEIAKESPKNLIIIALDNGAYGSTGSQETCALRYIDLEIFANACGITNTAKVNAREELIKIFKKFRDMKELALIHVILKPGNTNAPNIPLSPEGAAKRFKEALEAKKNEGHHHHHH”, which “soluble on expression in E. coli” value is on record?
The value was “soluble”.

Which “soluble on expression in E. coli” value does the source give for “MSLNRNDKRGARRNILAHYDLGNALFERLLDPTMMYSAAQFEHPGQTLEQAQLHKLERICQKLELSPDDHLLEIGSGWGSLAIHAATRYGCRVTTTTLSEAQYSHTLERVKALGLGQRVQVLREDYRDLQGTFDKLVSIEMIEAVGHRYLPVYFRQCASLLKPEGLMLLQAITIRDQRYAQAQRSVDFIQRYIFPGGALPSLSVLLDTASRHTGLNLVHMEDFGLDYAHTLRHWRENLRQARTALTDLGYDDMFQRLWEFYLCYCQGGFEERAIGVAHLLWAAEGHHHHHH” here?
Its value is “soluble”.

Which “soluble on expression in E. coli” value does the source give for “MSLNRYSVHPEQVKRFTTEELRSHFLMDSLFTENKLTMYYSHEDRVVIGGAAPGQSELKLDAGDFLKTDFFLERREIGIINVGQPGAVRVGDDEYVLQTKDFLYIGMGNQDVSFSSLNGEKAKFYFVSACAHKSYPTQKAALSELTPDRLGDDAASNVRSLYKVIHQDGIKSCQLMMGITMLDQNNNWNTMPAHVHDRRMEAYLYLDLEKDSKVFHFMGQPDETRHLVVGNEQAVLSPAWSIHSGAGTSNYSFVWAMAGENYTFTDMDLIPMDGLKEGHHHHHH” here?
Its value is “soluble”.

Which “soluble on expression in E. coli” value does the source give for “MSLNSATHLAAHEGSARRRQALGEFVRTARARITPQMAGLPAGSRRRTPGLRREEVAQLSDISVTWYTWIEQGREVTVSPAVWARIANVLHLARAERAYLFELAECADPQQPRDEGGDAPVSLQACVDAIDAPAYALDRAWNLLASNAAMRELFDDWPLRDAQPNLLRYIFLDPAARELVVDWDQRARRVVAEFRADAGAHLDEADVVALLDELNRASPVFAHWWTRHAVVEREGGLREFQHPRSGRQNLQQITFRLATHPELKLVMLLPSEGHHHHHH” here?
Its value is “soluble”.

Which “soluble on expression in E. coli” value does the source give for “MSLNTLLMHCRPGFEGEVCAEIAEHAATLEIPGYAKSKPASAHVEFVCQDADGAERLMRRLRFADLIFPRQWARGPGFIELPESQRIEVLLAELASYPVCGSLWLEVLDTNAGKEVSTFCRKFEKPLRAALVKAGRLQEDPALPRLLLTFRSGREVFVGLAEPRNSALWPMGIPRLKFPREAPSRSTLKLEEAWHQFIPRSEWDKRLAPDMLAVDLGAAPGGWTWQLVNREMRVTAVDNGPMAENLMYSGLVDHQKVDGYQYRPRQRVDWMVCDIVEKPARTGALIETWIGEGLCREAVVNLKLPMKQRYAEVRKILQRLRESFDARGLKVAIGCKQLYHDREEVTCHLRRLEREGGSHHHHHH” here?
Its value is “soluble”.

Which “soluble on expression in E. coli” value does the source give for “MSLNVDPNITKYVIKAKIVTDGVVEKPDVVGAIFGQTEGLLGEELDLRDLQKSGKIGRIEVEIDTKKGRTEGFVLIPSGLDQVESSILAAALETIDRIGPCKAKVDIEDVEDVRINKRDKVIQRAEELYKKMGTNGKSLSESIIQSVREEVEKKEILSYGEEHLPAGPAVGTSDSIIVVEGRNDVLNLLRYGIKNTIAVQGTSVPKTVKELSKARTVTLFVDGDHGGELIIKEMLQVADVDFIARAPPGTEVEELTYKQIVKALKYKAPVNQYLESHGMIEELKEFTEKNNKAIADMNVNTTVKEEPQQKKQEKEPKHVETAEVEAPVIEEINDINDPRFVRNKLNELFESKAVEIYDDAGNPIARYPVSDAAELMQSVKNGTTIISGGVISQRFVDIAFSMGVKSIYGMKIGHVTKKPDEIRVVTWEHMEGHHHHHH” here?
Its value is “soluble”.

Which “soluble on expression in E. coli” value does the source give for “MSLNVQTVAVIGSGTMGAGIAEVAASHGHQVLLYDISAEALTRAIDGIHARLNSRVTRGKLTAETCERTLKRLIPVTDIHALAAADLVIEAASERLEVKKALFAQLAEVCPPQTLLTTNTSSISITAIAAEIKNPERVAGLHFFNPAPVMKLVEVVSGLATAAEVVEQLCELTLSWGKQPVRCHSTPGFIVNRVARPYYSEAWRALEEQVAAPEVIDAALRDGAGFPMGPLELTDLIGQDVNFAVTCSVFNAFWQERRFLPSLVQQELVIGGRLGKKSGLGVYDWRAEREAVVGLEAVSDSFSPMKVEKKSDGVTEIDDVLLIETQGETAQALAIRLARPVVVIDKMAGKVVTIAAAAVNPDSATRKAIYYLQQQGKTVLQIADYPGMLIWRTVAMIINEALDALQKGVASEQDIDTAMRLGVNYPYGPLAWGAQLGWQRILRLLENLQHHYGEERYRPCSLLRQRALLESGYESEGHHHHHH” here?
Its value is “soluble”.

Which “soluble on expression in E. coli” value does the source give for “MSLPGNNSAKGTATGNATALWRNAQLATLNPAMDGIGAVENAVIAVRNGRIAFAGPESDLPDDLSTADETTDCGGRWITPALIDCHTHLVFGGNRAMEFEMRLNGATYEEIAKAGGGIVSSVRDTRALSDEVLVAQALPRLDTLLSEGVSTIEIKSGYGLDIETELKMLRVARRLETLRPVRIVTSYLAAHATPADYKGRNADYITDVVLPGLEKAHAEGLADAVDGFCEGIAFSVKEIDRVFAAAQQRGLPVKLHAEQLSNLGGAELAASYNALSADHLEYLDETGAKALAKAGTVAVLLPGAFYALREKQLPPVQALRDAGAEIALATDCNPGTSPLTSLLLTMNMGATLFRMTVEECLTATTRNAAKALGLLAETGTLEAGKSADFAIWDIERPAELVYRIGFNPLHARIFKGQKVSPEGHHHHHH” here?
Its value is “soluble”.
